{"source": "patent US7018846", "about": "(SCIENCE AND TECHNOLOGY CORPORATION UNM, dated 2006)", "binders": {"B1": {"name": "formyl-met-leu-phe-lys-FITC (peptide)", "peptide": "For-MLFK", "modifications": "also: FITC label, attachment site not given here", "notes": "Bought from Peninsula Laboratories; also called fMLFK-FITC; fluorescent formyl peptide"}}, "molecular_target": "T1, C-terminally His-tagged N-formyl peptide receptor (UniProt P21462 1-350)", "T1 construct": "Expressed in transfected U937 cells; also called C-His FPR; His6 FPR", "T1 sequence": "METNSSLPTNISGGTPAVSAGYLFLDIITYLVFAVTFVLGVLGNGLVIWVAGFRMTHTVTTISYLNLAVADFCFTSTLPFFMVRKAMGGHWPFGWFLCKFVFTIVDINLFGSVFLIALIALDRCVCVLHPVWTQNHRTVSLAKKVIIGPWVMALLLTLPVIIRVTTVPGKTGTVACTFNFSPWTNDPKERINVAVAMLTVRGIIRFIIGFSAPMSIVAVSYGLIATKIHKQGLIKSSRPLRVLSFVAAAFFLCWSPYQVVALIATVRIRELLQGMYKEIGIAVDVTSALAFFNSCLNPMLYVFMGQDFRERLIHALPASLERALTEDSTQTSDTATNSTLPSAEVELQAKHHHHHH", "assay": "flow cytometry; fMLFK-FITC on C-His FPR silica particles, optimal receptor input", "note": "No end group written: not given here. *: point of attachment. For = O=C*"}
{"binder": "B1", "values": [{"measurement": "fluorescent ligand signal to background ratio", "value": "≥ 30 ratio (x:1)"}]}
